We go through 18 molecules from US20260184814A1 (HUMABS BIOMED, published 2026).

Experiment [1] concerns the target N1. The experiment is described as follows: Bio-Layer Interferometry (BLI). On the technique in general: Biolayer interferometry detects binding as a change in optical thickness at a sensor tip.
Experiment [2] addresses T1, N2 neuraminidase from A/Leningrad/134/17/57 (Influenza A virus A/Leningrad/134/17/57, UniProt Q67214 1-469). Kind of experiment: flow cytometry, NA transiently expressed on Expi-CHO cells. In general terms: A flow cytometer gives signals particle by particle.
The target in experiment [3] is IBV neuraminidase from B/Lee/10/1940 (Ancestral) (Influenza B virus B/Lee/10/1940, UniProt P03474 1-466). The experiment is described as above.
In experiment [4] the target is N6 neuraminidase from A/swine/Ontario/01911/1/99 (Influenza A virus …). Described as above.
Experiment [5] has as its target T2, N2 neuraminidase from A/Washington/01/2007 (Influenza A virus A/Washington/01/2007).
T2 construct: whole, on cells
The description is as above.

Experiment [6] deals with N8 A/HARBOR SEAL/NEW …/179629/2011 (Influenza A virus). Described as above.
In experiment [7] the target is N9 neuraminidase from A/Anhui/1/2013 (Influenza A virus A/Anhui/1/2013 (H7N9)). Described as above.
The target in experiment [8] is N1. Kind of experiment: Bio-Layer Interferometry (BLI); printed as kdis.
Experiment [9] addresses N1. The experiment is described as follows: ELISA on N1 NA. (In an ELISA, binding on a coated surface is turned into a signal by an enzyme label.)
Experiment [10] deals with T1, N2 neuraminidase from …. Kind of experiment: flow cytometry, NA on cells.

Substitutions are numbered along the chain they refer to.

B1: FNI3 (antibody, V domains shown)
VH: QVQLVQSGAEVKRPGSSVKVSCKASGATFSNNVIAWVRQAPGQGLEWMGGIHPISATATYAQKFQGRVAIAADELTSTAYMELNGLRSEDSAVYYCARAGSDYFNRDLGWENYYFDSWGQGTLVTVSS
VL: EILMTQSPATLSVSPGERATLSCRASQDVSGNLAWYQQRPGQAPRLLIYGASTRATGVPARFTGAGSGTEFTLTISSLQSEDFALYYCQHYNNWPPWTFGQGTKVEIK
The Kd is the free concentration of one partner at which half of the binding sites on the other are occupied at equilibrium, for simple one-to-one binding. Broadly, the kon is a measure of how fast the partners come together. A low value points to slow association. Broadly, the koff is the first-order rate constant of dissociation. High values mean fast dissociation, low ones slow dissociation. One may read the EC50 (read off the curve) as the midpoint of the concentration-response curve. A lower EC50 (read off the curve) goes with an effect from little substance. The molecule B1 yielded a Kd with N1 [1] of less than 1 pM. The molecule also registered a kon with N1 [1] of 39500 M⁻¹ s⁻¹. The “lowest concentration at which binding was observed (EC50 scale class)” value in [2] worked out at 0.4 µg/mL; in experiment [3], 0.4 µg/mL; in [4], 0.4 µg/mL; in experiment [5] it was 10 µg/mL; in experiment [6], 50 µg/mL; in [7], 0.4 µg/mL. This molecule came in with an off-rate (koff) in the experiment with N1 [8] of less than 1e-07 s⁻¹. Also, the “EC50 (read off the curve)” value in the experiment with N1 [9] was roughly 0.007 µg/mL.

B2: FNI9 (antibody, V domains shown)
VH: QVHLVQSGAEVKEPGSSVTVSCKASGGSFNNQAISWVRQAPGQGLEWMGGIFPISGTPTSAQRFQGRVTFTADESTTTVYMDLSSLRSDDTAVYYCARAGSDYFNRDLGWENYYFASWGQGTLVTVSS
VL: EIVMTQSPATLSLSSGERATLSCRASRSVSSNLAWYQQKPGQAPRLLIYDASTRATGFSARFAGSGSGTEFTLTISSLQSEDSAIYYCQQYNNWPPWTFGQGTKVEIK
For B2, the “lowest concentration at which binding was observed (EC50 scale class)” value in experiment [2] and in experiment [3] was 0.4 µg/mL throughout.

B3: v9.7 (antibody, V domains shown)
VH: B2 VH with P58A, F70I
VL: B2 VL with N93I
In the case of B3, the binding result in experiment [10] is given as “binds”.

B4: v12.7 (antibody, V domains shown)
VH: B2 VH with P58A, T59N, S60Y, F70I
VL: B2 VL with N93I
With B4, in experiment [10], the binding result is recorded as “binds”.

B5: v6.7 (antibody, V domains shown)
VH: B2 VH with D102E
VL: B2 VL with N93I
On to B5, for which the binding result in experiment [10] is “binds”.

B6: v7.1 (antibody, V domains shown)
VH: B2 VH with N112Q
VL: B2 VL
With B6, the binding result in [10] is reported as “binds”.

B7: v7.7 (antibody, V domains shown)
VH: B2 VH with N112Q
VL: B2 VL with N93I
Turning to B7, the binding result in [10] is “binds”.

B8: v9.1 (antibody, V domains shown)
VH: B2 VH with P58A, F70I
VL: B2 VL
B8: in experiment [10], the binding result was “binds”.

B9: v11.7 (antibody, V domains shown)
VH: B2 VH with P58A, S60Y, F70I
VL: B2 VL with N93I
Consider B9, for which, in experiment [10], the binding result is given as “binds”.

B10: v8.7 (antibody, V domains shown)
VH: B2 VH with S28T
VL: B2 VL with N93I
As to B10, the binding result in experiment [10] is “binds”.

B11: FNI9-v8.1 (antibody, V domains shown)
VH: B2 VH with S28T
VL: B2 VL
Consider B11, for which the binding result in [10] is reported as “binds”.

B12: v5.7 (antibody, V domains shown)
VH: B2 VH with N31K
VL: B2 VL with N93I
For the molecule B12, in [10], the binding result is “binds”.

B13: v11.1 (antibody, V domains shown)
VH: B2 VH with P58A, S60Y, F70I
VL: B2 VL
With B13, in experiment [10], the binding result is recorded as “binds”.

B14: v12.1 (antibody, V domains shown)
VH: B2 VH with P58A, T59N, S60Y, F70I
VL: B2 VL
As for B14, the binding result in [10] is listed as “binds”.

B15: v6.1 (antibody, V domains shown)
VH: B2 VH with D102E
VL: B2 VL
Consider B15, for which the binding result in [10] was “binds”.

B16: v5.1 (antibody, V domains shown)
VH: B2 VH with N31K
VL: B2 VL
B16: in [10], the binding result is given as “binds”.

B17: v4.7 (antibody, V domains shown)
VH: B2 VH with N30S
VL: B2 VL with N93I
In the case of B17, in experiment [10], the binding result is given as “binds”.

B18: v4.1 (antibody, V domains shown)
VH: B2 VH with N30S
VL: B2 VL
Regarding B18, in [10], the binding result is listed as “binds”.
